# Data taken from publication PMC3973317, “Solution structure and tandem DNA recognition of the C-terminal effector domain of PmrA from Klebsiella pneumoniae”.
# T1: PmrAC (C-terminal effector/DNA-binding domain of PmrA) (Klebsiella pneumoniae, UniProt W9BNR5 121-223)
# T1 sequence: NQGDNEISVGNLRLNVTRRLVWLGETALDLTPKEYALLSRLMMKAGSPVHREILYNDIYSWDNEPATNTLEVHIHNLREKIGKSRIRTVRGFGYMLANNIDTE
# B1: box1b (dsDNA)
# DNA 1: ATTATCCTAAGCAAGG
# DNA 2: CCTTGCTTAGGATAAT
# B2: box1 dT-EDTA at THY4 (dsDNA)
# DNA 1: ATTTCTTAATATTATCCTAAGCAAG
# DNA 2: CTTGCTTAGGATAATATTAAGAAAT
# modifications: dT-EDTA at T4 of strand 1
# B3: box1 dT-EDTA at THY28 (dsDNA)
# DNA 1: ATTTCTTAATATTATCCTAAGCAAG
# DNA 2: CTTGCTTAGGATAATATTAAGAAAT
# modifications: dT-EDTA at THY28 (strand 2, position 3)
# B4: box2 (dsDNA)
# DNA 1: TCATTTTAATTTCGTTTAAGTCCG
# DNA 2: CGGACTTAAACGAAATTAAAATGA
# B5: box2b (dsDNA)
# DNA 1: CGTTTAAGTCCG
# DNA 2: CGGACTTAAACG
# B6: box1 (dsDNA)
# DNA 1: ATTTCTTAATATTATCCTAAGCAAG
# DNA 2: CTTGCTTAGGATAATATTAAGAAAT
# B7: box1a (dsDNA)
# DNA 1: AATTTCTTAATATTAT
# DNA 2: ATAATATTAAGAAATT
# Tests used:
# [1] = biological target: T1, PmrAC (C-terminal effector/DNA-binding …); experiment: fluorescence polarization; 20 mM sodium phosphate, 30 mM NaCl, pH 6.0; FP with 12 nM 6-FAM DNA (temperature not stated); ITC plus 0.5 mM EDTA at 25 C; NMR at 298 K; conditions: protein: recombinant; tags: N-terminal extra Met; chain copies: 2; label: 5' 6-FAM (fluorescence polarization); none (NMR); blunt
# [2] = biological target: T1, PmrAC (C-terminal effector/DNA-binding …); experiment: NMR PRE; Mn2+ or Ca2+; 1:1; label does not affect interaction; 20 mM sodium phosphate, 30 mM NaCl, pH 6.0; FP with 12 nM 6-FAM DNA (temperature not stated); ITC plus 0.5 mM EDTA at 25 C; NMR at 298 K; conditions: protein: recombinant; tags: N-terminal extra Met; chain copies: 2; label: EDTA spin label (Mn2+/Ca2+); blunt
# [3] = biological target: T1, PmrAC (C-terminal effector/DNA-binding …); experiment: NMR PRE; Mn2+ or Ca2+; 2:1 protein:DNA; label does not affect interaction; 20 mM sodium phosphate, 30 mM NaCl, pH 6.0; FP with 12 nM 6-FAM DNA (temperature not stated); ITC plus 0.5 mM EDTA at 25 C; NMR at 298 K; conditions: protein: recombinant; tags: N-terminal extra Met; chain copies: 2; label: EDTA spin label (Mn2+/Ca2+); blunt
# [4] = biological target: T1, PmrAC (C-terminal effector/DNA-binding …); experiment: ITC; 2:1 protein:DNA; one-site fit; 0.5 mM EDTA; 20 mM sodium phosphate, 30 mM NaCl, pH 6.0; FP with 12 nM 6-FAM DNA (temperature not stated); ITC plus 0.5 mM EDTA at 25 C; NMR at 298 K; conditions: protein: recombinant; tags: N-terminal extra Met; chain copies: 2; blunt
# [5] = biological target: T1, PmrAC (C-terminal effector/DNA-binding …); experiment: NMR titration; range over residues; 20 mM sodium phosphate, 30 mM NaCl, pH 6.0; FP with 12 nM 6-FAM DNA (temperature not stated); ITC plus 0.5 mM EDTA at 25 C; NMR at 298 K; conditions: protein: recombinant; tags: N-terminal extra Met; chain copies: 2; blunt
# [6] = biological target: T1, PmrAC (C-terminal effector/DNA-binding …); experiment: ITC; 1:1 stoichiometry; 0.5 mM EDTA; 20 mM sodium phosphate, 30 mM NaCl, pH 6.0; FP with 12 nM 6-FAM DNA (temperature not stated); ITC plus 0.5 mM EDTA at 25 C; NMR at 298 K; conditions: protein: recombinant; tags: N-terminal extra Met; chain copies: 2; blunt
# [7] = biological target: T1, PmrAC (C-terminal effector/DNA-binding …); experiment: fluorescence polarization; two-site fit, first site (half1); 20 mM sodium phosphate, 30 mM NaCl, pH 6.0; FP with 12 nM 6-FAM DNA (temperature not stated); ITC plus 0.5 mM EDTA at 25 C; NMR at 298 K; conditions: protein: recombinant; tags: N-terminal extra Met; chain copies: 2; label: 5' 6-FAM (fluorescence polarization); none (NMR); blunt
binder,measurement,setting,value
B1,Kd,[1],9.3 ± 1.5 µM
B2,binding result,[2],binds
B3,binding result,[3],binds
B4,Kd,[4],0.97 ± 0.13 µM
B5,Kd,[5],31.9 µM
same,Kd,[6],36.5 ± 9.4 µM
B6,Kd,[7],0.19 ± 0.01 µM
B7,Kd,[1],0.13 ± 0.01 µM
